Columns and labels:
Format in all cases: cell-based
CD4 T cells = assay: Cell cycle analysis by propidium iodide staining; conditions: anti-CD3 activated CD4 T cell cultures
NKG2D+ CD4+ T cells = assay: NKG2D expression and expansion of activated CD4 T cells; conditions: for expansion / proliferation of NKG2D+ CD4+ T cells: anti-CD3 activated CD4 T cell cultures
Method: For the analysis of NKG2D expression in activated CD4 T cells, freshly isolated pure CD4^+ T cells were plated at 0.3×10^6/2 ml AIM-V medium (Gibco)/well in 24 well plates for various periods of time with or without the presence of mitogenic stimuli and/or the presence of NKG2D ligands. Mitogenic stimuli included either cross-linked anti-CD3 (plates were first coated with AffiniPure F(ab′)2 fragment goat anti-mouse IgG1, Fcγ fragment specific (Jackson ImmunoResearch Laboratories, Inc.) at 10 μg/ml in PBS over night at 4° C. followed by a 4 hr room temperature incubation with anti-CD3 (OKT3, Orthoclone, Ortho Biotech Products, L.P.) at 50 ng/ml (if not indicated otherwise), PHA (5 μg/ml), or PMA/Ionomycin. Ligand additions consisted of either irradiated CLR-MICA and control transfectants at a T cell:transfectant ratio of 5:1, or recombinant soluble MICA at 25 ng/ml if not indicated otherwise. Cells were harvested at various time points after the initiation of culture and tested for NKG2D, CD4 and CD3 coexpression using directly conjugated mAbs for standard three color flow cytometry.
(§1) For analysis of CD4^+ T cell proliferation in conjunction with NKG2D expression, 1×10^7 freshly isolated pure CD4^+ T cells/ml PBS were labeled with an equal volume of 2 μM CFSE (Molecular Probes) for 8 min at room temperature. CFSE was quenched with an equal volume of fetal calf serum for one min followed by three washes with AIM-V medium. CFSE labeled cells were then plated, stimulated and phenotypically analysed as described above. Additional ligands tested in this experimental setting included any of either C1R-MICB, ULBP-1, -2, -3, 4, or -5 transfectants, recombinant soluble MICB, or 5% soluble MIC containing serum from a MIC+ tumor patient and MIC− control serum. To test ligand specificity, ligand containing cultures were treated with either 10 μg/ml 6D4 (anti-MICA/B), 10 μg/ml 3F1 (anti-ULBP-1), or appropriately diluted isotype control immunoglobulins. In some experiments, ligand was replaced by solid-phase anti-NKG2D (1D11) at the concentrations ranging from 5-50 ng/ml. In some experiments, ligand/solid-phase mAb were added on day 1, 2 or 3 after the initiation of culture.

NKG2D- CD4+ T cells = assay: CD4 T cell proliferation (CFSE dilution, [3H]thymidine incorporation); conditions: anti-CD3 activated CD4 T cell cultures
Method: as §1
To assess inhibition of CD4^+ T cell proliferation by standard [^3H]thymidine incorporation experiments, freshly isolated pure CD4^+ T cells were plated at 1×10^5 cells/well in a 96 well flat bottom plate containing titrated cross-linked anti-CD3 (see above) or isotype control Ig with or without titrated recombinant soluble MIC. After 72 hrs at 37° C., plates were pulsed with 3 μCi of [^3H]thymidine (Perkin Elmer) for 12 hrs. Plates were harvested and samples analysed by liquid scintillation using Uni-Filter GF/C plates and a TopCount Counter (both from Packard). Counts from triplicates were averaged.

B1: sMICA: soluble MICA, NKG2D ligand added to CD4 T cell cultures (protein)
chain: EPHSLRYNLTVLSWDGSVQSGFLTEVHLDGQPFLRCDRQKCRAKPQGQWAEDVLGNKTWDRETRDLTGNGKDLRMTLAHIKDQKEGLHSLQEIRVCEIHEDNSTRSSQHFYYDGELFLSQNLETKEWTMPQSSRAQTLAMNVRNFLKEDAMKTKTHYHAMHADCLQELRRYLKSGVVLRRTVPPMVNVTRSEASEGNITVTCRASGFYPWNITLSWRQDGVSLSHDTQQWGDVLPDGNGTYQTWVATRICQGEEQRFTCYMEHSGNHSTHPVPSGK
- cell cycle distribution (CD4 T cells): partial cell cycle arrests in G0/G1
- expansion / proliferation of NKG2D+ CD4+ T cells (NKG2D+ CD4+ T cells): expansion of NKG2D^+ CD4^+ T cells
- expansion / proliferation of NKG2D+ CD4+ T cells (NKG2D+ CD4+ T cells; listed as soluble MICA): proliferate
- NKG2D induction on normal CD4+ T cells (NKG2D+ CD4+ T cells; upon anti-CD3 activation): enhanced
- proliferation of NKG2D- CD4+ T cells (NKG2D- CD4+ T cells): inhibition of NKG2D^− CD4^+ T cell proliferation

Reference: patent US20070248607A1, “NEGATIVE IMMUNOMODULATION OF IMMUNE RESPONSES BY NKG2D-POSITIVE CD4+ CELLS” (priority 2005, published 2007)
